The text below walks through data of publication PMC5766154.

Where a chain is given by its changes, count along the chain named.

Series [1] has as its target full-length AdeR (AdeR_FL), response regulator of Acinetobacter baumannii (Acinetobacter baumannii ATCC19606). As to the kind of experiment: SEC.
In series [2] the target is AdeR receiver domain with linker sequence (AdeR_RD, 1-137) (Acinetobacter baumannii ATCC19606). As to the kind of experiment: SEC. Background: SEC sorts molecules by how far they enter the pores of the column.
The next series concerns the target T1, AdeR_DBD (Acinetobacter baumannii ATCC19606, UniProt E1A0Z5 138-247).
T1 sequence: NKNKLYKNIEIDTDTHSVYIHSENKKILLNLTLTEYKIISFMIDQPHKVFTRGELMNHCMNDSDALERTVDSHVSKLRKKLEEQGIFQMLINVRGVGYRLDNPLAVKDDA
Briefly: ITC. (In general: In ITC the heat of successive injections is recorded.)

The target in series [3] is T2, AdeR_FL R231A (Acinetobacter baumannii ATCC19606, UniProt E1A0Z5 1-247, R231A).
T2 sequence: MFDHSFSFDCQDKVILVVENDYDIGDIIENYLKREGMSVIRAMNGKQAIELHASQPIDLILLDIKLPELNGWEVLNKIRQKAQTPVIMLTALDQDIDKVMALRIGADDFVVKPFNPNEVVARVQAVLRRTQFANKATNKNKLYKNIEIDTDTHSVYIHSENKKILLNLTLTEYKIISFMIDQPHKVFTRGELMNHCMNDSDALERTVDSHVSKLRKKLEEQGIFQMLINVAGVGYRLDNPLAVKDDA
Briefly: ITC.

The target in the next series is T3, AdeR_FL R205A/R215A (Acinetobacter baumannii ATCC19606, UniProt E1A0Z5 1-247, R205A;R215A).
T3 sequence: T2 sequence with R205A, R215A, A231R
As to the kind of experiment: ITC.

The next series has as its target T4, AdeR_FL (Acinetobacter baumannii ATCC19606, UniProt E1A0Z5 1-247).
T4 sequence: T2 sequence with A231R
As to the kind of experiment: ITC.

The target in the next series is T5, AdeR_FL D63E (Acinetobacter baumannii ATCC19606, UniProt E1A0Z5 1-247, D63E).
T5 sequence: T2 sequence with D63E, A231R
Briefly: ITC.

In a further series the target is T6, AdeR_FL R122A (Acinetobacter baumannii ATCC19606, UniProt E1A0Z5 1-247, R122A).
T6 sequence: T2 sequence with R122A, A231R
Briefly: ITC.

Series [4] concerns the target T2, AdeR_FL R231A. As to the kind of experiment: EMSA. For orientation: In EMSA bound probe runs differently from free probe, usually more slowly.

The term stoichiometry N denotes a count of units in the complex or per binding partner. In series [1], “full-length AdeR (AdeR_FL), response regulator of Acinetobacter baumannii (natural protein)” returned a stoichiometry N of 2.
“AdeR receiver domain with linker sequence (AdeR_RD, 1-137) (domain or fragment)”: in series [2], the stoichiometry N is 2.

B1: 25 bp intercistronic DNA (dsDNA)
DNA 1: TAAAGTGTGGAGTAAGTGTGGAGAA
DNA 2: TTCTCCACACTTACTCCACACTTTA
One may read the Kd as the concentration at which binding is half-saturated. Lower therefore signals higher affinity. Consider B1, for which the Kd was found to be 2200 nM with AdeR_DBD, 20 nM in the series with AdeR_FL and 1000 nM in the series with AdeR_FL R122A. The binding result is given as “no binding” with AdeR_FL R231A [3], “no binding” in the series with AdeR_FL R205A/R215A and “binds” with AdeR_FL D63E.

B2: biotin 25 bp intercistronic DNA (dsDNA)
DNA 1: TAAAGTGTGGAGTAAGTGTGGAGAA
DNA 2: TTCTCCACACTTACTCCACACTTTA
Regarding B2, the binding result with AdeR_FL R231A [4] was “no binding”.
